Experimental data published in publication PMC7494870, “Arrangement and symmetry of the fungal E3BP-containing core of the pyruvate dehydrogenase complex” (Nature Communications, 2020).

Key:
[1] = target: T1, Neurospora crassa protein X (endogenous, in the native PDC) (N. crassa (endogenous in N. crassa …, UniProt Q7RWS2 1-426)); assay: cryo-EM structure; single-particle cryo-EM of intact native PDC purified from N. crassa mitochondria; icosahedral and tetrahedral (classes X, Y) reconstructions; conditions: both partners purified
T1 construct: Protein X (PX) of the pyruvate dehydrogenase complex, Neurospora crassa, uniprot Q7RWS2, locus NCU00050; Forms trimers inside the E2 core; also called PX; X-component; source: endogenous, PDC purified from N. crassa mitochondria (DDM lysis, sucrose cushion, sucrose gradient, SEC)
T1 sequence (looked up): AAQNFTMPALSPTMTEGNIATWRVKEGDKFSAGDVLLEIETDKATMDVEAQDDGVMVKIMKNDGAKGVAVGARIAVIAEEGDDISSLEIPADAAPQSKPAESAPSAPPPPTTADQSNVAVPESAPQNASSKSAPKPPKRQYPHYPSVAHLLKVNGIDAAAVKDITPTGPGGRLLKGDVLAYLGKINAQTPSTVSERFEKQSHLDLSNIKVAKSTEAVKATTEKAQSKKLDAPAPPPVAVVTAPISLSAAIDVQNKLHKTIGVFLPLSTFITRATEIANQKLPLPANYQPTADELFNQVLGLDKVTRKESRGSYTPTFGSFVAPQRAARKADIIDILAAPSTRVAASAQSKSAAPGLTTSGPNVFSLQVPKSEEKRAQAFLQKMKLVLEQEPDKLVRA

[2] = target: the molecule itself; assay: as above
[3] = target: T2, N. crassa PX (30-426), His-tagged, separately expressed (N. crassa, UniProt Q7RWS2 30-426); assay: pull-down; separately expressed tE2 and His-tagged PX variants, brief incubation, co-purified by Ni-NTA affinity
T2 construct: Protein X (PX), Neurospora crassa, residues 30-426 of uniprot Q7RWS2; His6 tag is cleavable with TEV; protein was either cleaved with TEV or eluted with imidazole depending on the purpose; also called full-length PX; source: E. coli Rosetta2 (DE3), pRSET vector, single expression, Ni-NTA
T2 sequence (looked up): T1 sequence (looked up)

[4] = target: the molecule itself; assay: cryo-EM structure; single-particle cryo-EM of the reconstituted tE2 + PX30 recombinant subcomplex, icosahedral symmetry
[5] = target: the molecule itself; assay: cryo-EM structure; single-particle cryo-EM of the co-expressed tE2 + PX261 subcomplex, icosahedral symmetry

B1: Neurospora crassa pyruvate dehydrogenase complex E2 (endogenous, core of the native PDC) (enzyme, UniProt P20285 29-458, looked up)
chain: ASYPPHTVVKMPALSPTMTSGGIGAWQKKPGDKIEPGEVLVEIETDKAQMDFEFQEEGVLAKILKDSGEKDVAVGNPIAILVEEGTDVNAFKDFTLKDAGGETSPAVPKDEPKNESTASAPTPAPTPAPEPENTSFTGRFQTALEREPNALPAAKRLAREKGIDLRNVKGSGPGGKITEEDVKKALASAPAAGAAAAAYTDVPISGMRKTIAARLKESVTENPHFFVSTNLSVSKLLKLRQALNSSADGRYKLSVNDFLIKAMGIASKRVPTVNSSWRDGVIRQFETVDVSVAVATPNGLITPIVKGVEGKGLESISAAVKELAKKARDGKLKPEEYQGGSISISNMGMNPAVQSFTAIINPPQAAILAVGAPQKVAVPVENEDGTTGVSWDEQIIVTASFDHKVVDGAVGAEWIRELKKVIENPLELLL
notes: E2 of the pyruvate dehydrogenase complex, Neurospora crassa, uniprot P20285; residues 232-458 identified in the native reconstruction; Icosahedral core of 60 E2 in the native complex; only the core-forming domain is ordered in the map; also called E2 core; PDC core; source: endogenous, PDC purified from N. crassa mitochondria (DDM lysis, sucrose cushion, sucrose gradient, SEC); copies: 60
In the case of B1, the “stoichiometry N” value [1] is reported as at most 12 PX monomers per E2 core and the “stoichiometry N” value [2] is reported as 60.

B2: N. crassa E2 core-forming domain, tE2 (225-458), separately expressed (domain or fragment, UniProt P20285 225-458, looked up)
chain: AAYTDVPISGMRKTIAARLKESVTENPHFFVSTNLSVSKLLKLRQALNSSADGRYKLSVNDFLIKAMGIASKRVPTVNSSWRDGVIRQFETVDVSVAVATPNGLITPIVKGVEGKGLESISAAVKELAKKARDGKLKPEEYQGGSISISNMGMNPAVQSFTAIINPPQAAILAVGAPQKVAVPVENEDGTTGVSWDEQIIVTASFDHKVVDGAVGAEWIRELKKVIENPLELLL
notes: E2 core-forming domain, Neurospora crassa, residues 225-458 of uniprot P20285; His6 tag is cleavable with thrombin; PDB 6ZLO covers residues 227-458; source: E. coli Rosetta2 (DE3), pRSET vector, single expression
B2: binds [3]; binds [4].

B3: N. crassa E2 core-forming domain, tE2 (225-458), untagged, co-expressed with PX constructs (domain or fragment, UniProt P20285 225-458, looked up)
chain: B2 chain
notes: E2 core-forming domain, Neurospora crassa, residues 225-458 of uniprot P20285; also called untagged E2 core-forming domain; source: E. coli Rosetta2 (DE3), petDuet dual-expression vector, co-expressed with His-tagged PX constructs, in lysate; co-purified on Ni-NTA
B3: binds [5].
